{"source": "patent US9453061B2", "about": "“Method and compositions for treatment of calcineurin-related diseases” (BROWN UNIVERSITY, priority 2014, dated 2016)", "molecules": {"B1": {"name": "RNA-binding domain (amino acid positions 1-88): structured N-terminal RNA-binding domain of RCAN1, amino acid positions 1-88 (protein, UniProt P53805 1-88, looked up, fragment)", "chain": "MEDGVAGPQLGAAAEAAEAAEARARPGVTLRPFAPLSGAAEADEGGGDWSFIDCEMEEVDLQDLPSATIACHLDPRVFVDGLCRAKFE"}}, "molecular_target": "T1, calcineurin (Homo sapiens, UniProt Q08209)", "T1 construct": "made in house", "T1 sequence (Q08209 1-391 limits assumed)": "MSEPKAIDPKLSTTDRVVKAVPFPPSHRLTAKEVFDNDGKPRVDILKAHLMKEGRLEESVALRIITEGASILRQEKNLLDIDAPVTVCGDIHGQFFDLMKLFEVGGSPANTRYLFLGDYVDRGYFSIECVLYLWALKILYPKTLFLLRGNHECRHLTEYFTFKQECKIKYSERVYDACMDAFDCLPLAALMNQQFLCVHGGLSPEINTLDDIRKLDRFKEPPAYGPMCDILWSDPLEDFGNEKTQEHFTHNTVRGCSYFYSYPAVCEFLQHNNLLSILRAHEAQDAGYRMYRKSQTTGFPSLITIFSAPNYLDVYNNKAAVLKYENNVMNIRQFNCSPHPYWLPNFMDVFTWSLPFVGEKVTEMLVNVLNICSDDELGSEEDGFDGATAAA", "T1 sequence (P63098 whole entry partner)": "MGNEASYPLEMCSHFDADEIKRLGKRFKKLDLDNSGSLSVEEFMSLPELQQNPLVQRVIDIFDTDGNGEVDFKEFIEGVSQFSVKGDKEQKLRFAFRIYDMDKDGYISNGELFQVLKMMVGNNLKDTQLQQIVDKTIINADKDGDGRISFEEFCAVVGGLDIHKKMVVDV", "assay": "Isothermal titration calorimetry (ITC) of RCAN1 constructs with calcineurin", "assay_type": "binding", "experimental": "Only RCAN1^89-197 (SEQ ID NO: 2) was labeled with NMR active nuclei; calcineurin was unlabeled. […] See, FIG. 2.\nAffinity of each RCAN1 construct for calcineurin was measured using ITC to determine the individual contribution of each motif to binding. […] See, FIG. 2A.\nThe CNB subunit was analyzed to determine whether the subunit influences binding by generating a construct of only the calcineurin catalytic domain, CNAcat containing residues 1-348, and identical to a previously characterized CNA construct. See, Takeuchi et al., Structure 15, 587-97 (2007).\nTo determine how the TxxP (SEQ ID NO: 11) motif binds and engages calcineurin, the residues within and surrounding the TxxP (SEQ ID NO: 11) motif were mutated (i.e. K182A/E, Q185A, E190R/A, Y191A) and ITC was used to quantify which residues are most critical for calcineurin binding. ITC was used to determine whether the TxxP (SEQ ID NO: 11) motif binds only the CNA catalytic domain, or also requires CNB for binding using RCAN1^128-197, without requiring the LxVP (SEQ ID NO: 10) motif. Calcineurin active site residues were mutated as follows: R122A/D, H151A, D118A, R254A/D; and the change in affinity was quantified."}
{"molecule": "RCAN1^128-192: within SEQ ID NO: 2; includes RCAN1^128-164 and the TxxP site", "values": [{"measurement": "Kd", "result": "~300", "unit": "nM"}]}
{"molecule": "B1", "values": [{"measurement": "binding to calcineurin (in words)", "result": "does not interact directly"}]}
